One block for each binder: values may come before it. [ ]: non-standard residue; d: D form. Phe(3-Me) = Cc1cccc(C[C@H](N)C(=O)O)c1; Arg(Me) = CNC(=N)NCCC[C@H](N)C(=O)O; Dap(CONH2) = NC(=O)NC[C@H](N)C(=O)O; Ala(cPr) = N[C@@H](CC1CC1)C(=O)O; Hyp = O=C(O)[C@@H]1C[C@@H](O)CN1; Cha = N[C@@H](CC1CCCCC1)C(=O)O; Cit = NC(=O)NCCC[C@H](N)C(=O)O; Aib = CC(C)(N)C(=O)O
Biological target: metastin receptor (OT7T175) stably expressed on CHO/dhfr- cells (human or rat, not given)
Experiment: cell-based or functional assay

B4: des(1)-Ac-[D-Tyr2,Hyp3,Thr5,Phe6Ψ((E)CH═CH)Gly7,Arg(Me)9,Trp10]MS10 (peptide)
peptide: Ac-[dY][Hyp]NTFGL[Arg(Me)]W-NH2
modifications: also: Phe5-Gly6 -CONH- replaced by (E) CH=CH
Specific Activity (EC50 of test compound based on EC50 of Metastin (45-54)); agonist activity, intracellular calcium ion level, FLIPR (ratio to Metastin (45-54)): 0.7

B5: des(1)-Ac-[D-Tyr2,Asp3,Thr5,Cha6,Ala(cPr)8,Arg(Me)9,Trp10]MS10 (peptide)
peptide: Ac-[dY]DNT[Cha]G[Ala(cPr)][Arg(Me)]W-NH2
Specific Activity (EC50 of test compound based on EC50 of Metastin (45-54)); agonist activity, intracellular calcium ion level, FLIPR (ratio to Metastin (45-54)): 2.5

B6: des(1)-Ac-[D-Tyr2,Glu3,Thr5,Gly7Ψ((E)CH═CH)Leu8,Arg(Me)9,Trp10]MS10 (peptide)
peptide: Ac-[dY]ENTFGL[Arg(Me)]W-NH2
modifications: also: Gly6-Leu7 -CONH- replaced by (E) type alkene
Specific Activity (EC50 of test compound based on EC50 of Metastin (45-54)); agonist activity, intracellular calcium ion level, FLIPR (ratio to Metastin (45-54)): 0.6

B7: des(1)-Ac-[D-Tyr2,Glu3,Alb4,Thr5,Cha6,Gly7Ψ((E)CH═CH)Leu8,Arg(Me)9,Trp10]MS10 (peptide)
peptide: Ac-[dY]E[Dap(CONH2)]T[Cha]GL[Arg(Me)]W-NH2
modifications: also: Gly6-Leu7 -CONH- replaced by (E) type alkene
Specific Activity (EC50 of test compound based on EC50 of Metastin (45-54)); agonist activity, intracellular calcium ion level, FLIPR (ratio to Metastin (45-54)): 0.5

B8: des(1)-Ac-[D-Tyr2,Glu3,Thr5,Cha6,Ala(cPr)8,Arg(Me)9,Trp10]MS10 (peptide)
peptide: Ac-[dY]ENT[Cha]G[Ala(cPr)][Arg(Me)]W-NH2
Specific Activity (EC50 of test compound based on EC50 of Metastin (45-54)); agonist activity, intracellular calcium ion level, FLIPR (ratio to Metastin (45-54)): 0.4

B9: des(1)-Ac-[D-Tyr2,Hyp3,Cit4,Thr5,Cha6,Gly7Ψ((E)CH═CH)Leu8,Arg(Me)9,Trp10]MS10 (peptide)
peptide: Ac-[dY][Hyp][Cit]T[Cha]GL[Arg(Me)]W-NH2
modifications: also: Gly6-Leu7 -CONH- replaced by (E)-CH=CH-
Specific Activity (EC50 of test compound based on EC50 of Metastin (45-54)); agonist activity, intracellular calcium ion level, FLIPR (ratio to Metastin (45-54)): 0.9

B11: des(1)-Ac-[D-Tyr2,Hyp3,Alb4,Thr5,Gly7Ψ((E)CH═CH)Leu8,Arg(Me)9,Trp10]MS10 (peptide)
peptide: Ac-[dY][Hyp][Dap(CONH2)]TFGL[Arg(Me)]W-NH2
modifications: also: Gly6-Leu7 -CONH- replaced by (E)-CH=CH-
Specific Activity (EC50 of test compound based on EC50 of Metastin (45-54)); agonist activity, intracellular calcium ion level, FLIPR (ratio to Metastin (45-54)): 0.6

B13: des(1)-Ac-[D-Tyr2,Hyp3,Thr5,Phe6Ψ((S)CHOH-(E)CH═)Gly7,Arg(Me)9,Trp10]MS10 (peptide)
peptide: Ac-[dY][Hyp]NTFGL[Arg(Me)]W-NH2
modifications: also: Phe5-Gly6 amide bond replaced by -CH(OH)-CH= ((S)-CHOH, (E) alkene)
Specific Activity (EC50 of test compound based on EC50 of Metastin (45-54)); agonist activity, intracellular calcium ion level, FLIPR (ratio to Metastin (45-54)): 1.7

B15: des(1)-Ac-[D-Tyr2,Hyp3,Glu4,Thr5,Cha6,Gly7Ψ((E)CH═CH)Leu8,Arg(Me)9,Trp10]MS10 (peptide)
peptide: Ac-[dY][Hyp]ET[Cha]GL[Arg(Me)]W-NH2
modifications: also: Gly6-Leu7 -CONH- replaced by (E)-CH=CH-
Specific Activity (EC50 of test compound based on EC50 of Metastin (45-54)); agonist activity, intracellular calcium ion level, FLIPR (ratio to Metastin (45-54)): 4.6

B16: des(1)-Ac-[D-Tyr2,Hyp3,Thr5,Phe(3Me)6,Arg(Me)9,Trp10]MS10 (peptide)
peptide: Ac-[dY][Hyp]NT[Phe(3-Me)]GL[Arg(Me)]W-NH2
Specific Activity (EC50 of test compound based on EC50 of Metastin (45-54)); agonist activity, intracellular calcium ion level, FLIPR (ratio to Metastin (45-54)): 0.8

Results, then the binder that gave them:

Specific Activity (EC50 of test compound based on EC50 of Metastin (45-54)); agonist activity, intracellular calcium ion level, FLIPR (ratio to Metastin (45-54)): 0.5
B1: des(1)-Ac-[D-Tyr2,Hyp3,Thr5,Cha6,Ala(cPr)8,Arg(Me)9,Trp10]MS10 (peptide)
peptide: Ac-[dY][Hyp]NT[Cha]G[Ala(cPr)][Arg(Me)]W-NH2
SMILES: CNC(=N)NCCC[C@H](NC(=O)[C@H](CC1CC1)NC(=O)CNC(=O)[C@H](CC1CCCCC1)NC(=O)[C@@H](NC(=O)[C@H](CC(N)=O)NC(=O)[C@@H]1C[C@@H](O)CN1C(=O)[C@@H](Cc1ccc(O)cc1)NC(C)=O)[C@@H](C)O)C(=O)N[C@@H](Cc1c[nH]c2ccccc12)C(N)=O

Specific Activity (EC50 of test compound based on EC50 of Metastin (45-54)); agonist activity, intracellular calcium ion level, FLIPR (ratio to Metastin (45-54)): 1.5
B2: des(1)-Ac-[D-Tyr2,Hyp3,Thr5,Aib7,Arg(Me)9,Trp10]MS10 (peptide)
peptide: Ac-[dY][Hyp]NTF[Aib]L[Arg(Me)]W-NH2

Specific Activity (EC50 of test compound based on EC50 of Metastin (45-54)); agonist activity, intracellular calcium ion level, FLIPR (ratio to Metastin (45-54)): 0.6
B3: des(1)-Ac-[D-Tyr2,Hyp3,Thr5,Cha6,Gly7Ψ((E)CH═CH)Leu8,Arg(Me)9,Trp10]MS10 (peptide)
peptide: Ac-[dY][Hyp]NT[Cha]GL[Arg(Me)]W-NH2
modifications: also: Gly6-Leu7 -CONH- replaced by (E)-CH=CH-

Specific Activity (EC50 of test compound based on EC50 of Metastin (45-54)); agonist activity, intracellular calcium ion level, FLIPR (ratio to Metastin (45-54)): 0.5
B10: des(1)-Ac-[D-Tyr2,Glu3,Thr5,Cha6,Gly7Ψ((E)CH═CH)Leu8,Arg(Me)9,Trp10]MS10 (peptide)
peptide: Ac-[dY]ENT[Cha]GL[Arg(Me)]W-NH2
modifications: also: Gly6-Leu7 -CONH- replaced by (E) type alkene

Specific Activity (EC50 of test compound based on EC50 of Metastin (45-54)); agonist activity, intracellular calcium ion level, FLIPR (ratio to Metastin (45-54)): 0.6
B12: des(1)-Ac-[D-Tyr2,Hyp3,Thr5,Gly7Ψ((E)CH═CH)Leu8,Arg(Me)9,Trp10]MS10 (peptide)
peptide: Ac-[dY][Hyp]NTFGL[Arg(Me)]W-NH2
modifications: also: Gly6-Leu7 -CONH- replaced by (E) CH=CH

Specific Activity (EC50 of test compound based on EC50 of Metastin (45-54)); agonist activity, intracellular calcium ion level, FLIPR (ratio to Metastin (45-54)): 0.8
B14: des(1)-Ac-[D-Tyr2,Hyp3,Thr5,Gly7Ψ(CH2CH2)Leu8,Arg(Me)9,Trp10]MS10 (peptide)
peptide: Ac-[dY][Hyp]NTFGL[Arg(Me)]W-NH2
modifications: also: Gly6-Leu7 -CONH- replaced by -CH2CH2-

Specific Activity (EC50 of test compound based on EC50 of Metastin (45-54)); agonist activity, intracellular calcium ion level, FLIPR (ratio to Metastin (45-54)): 0.4
B17: des(1)-Ac-[D-Tyr2,Hyp3,Alb4,Thr5,Cha6,Gly7Ψ((E)CH═CH)Leu8,Arg(Me)9,Trp10]MS10 (peptide)
peptide: Ac-[dY][Hyp][Dap(CONH2)]T[Cha]GL[Arg(Me)]W-NH2
modifications: also: Gly6-Leu7 -CONH- replaced by (E) type alkene
